Reference: US20250084182A1 (R P SCHERER TECHNOLOGIES, published 2025)
Numbering of substitutions follows the chain as printed.

B1: MUC1 gB06 (antibody, V domains shown)
VH: EVQLVQSGAEVKKPGATVKISCKVSGYTFTDHTMHWIKQRPGKGLEWMGYFYPRDDSTNYNEKFKGRVTLTADKSTDTAYMELSSLRSEDTAVYYCARGLRYALDYWGQGTLVTVSS
VL: EIVLTQSPATLSLSPGERATLSCRASSSVSSSYLYWYQQKPGQAPRLWIYGTSNLASGVPARFSGSGSGTDYTLTISSLEPEDAAVYYCHQYAWSPPTFGQGTKLEIK
notes: Monoclonal antibody; also called B06 antibody; anti-MUC1 antibody B06
B2: MUC1 G12 (antibody, V domains shown)
VH: B1 VH
VL: B1 VL with S30G, Y33N, G51R, T52S, S53T, N54K, A93R
notes: Monoclonal antibody; It was detected with an anti-human Fc secondary, and DSF reports CH2 and Fab regions
B3: MUC1 H02 (antibody, V domains shown)
VH: B1 VH
VL: B1 VL with Y50I, A93S
notes: as for B2

molecular target: T1, recombinant 20 mer MUC1 glycosylated-biotin (Tn (GalNac) antigen or sialyl Tn (Neu5Acα2-6GalNAc) antigen modifications on some of the S/T residues; biotin conjugated to the N-terminus); test: ELISA, peptide coated on plate, anti-Fc HRP detection
T1 construct: also called 20mer glycosylated MUC1 peptide
Description: (§1) MUC1 ELISA: Antigens were coated directly on a Streptavidin (Pierce, 15500) or Maxisorp (VWR, 62409-024) 96-well plate at 100ng/well in PBS. Coated plates were incubated at 4° C. overnight. The plates were blocked with casein blocking buffer (Thermo Fisher, 37528) and washed with PBS-Tween-20. Antibodies were serially diluted in PBS, added to the coated wells and incubated for 1h at room temperature with shaking. To test for stickiness, antibodies were also added to uncoated, blocked wells. Peroxidase (HRP)-conjugated anti-Fc secondary (Jackson Immunoresearch, #109-035-098) was used for detection, followed by a […] substrate (Thermo Fisher, 34028) and H2S04 quench. Absorbance was read at 450 nm on a Molecular Devices plate reader.

T1 sequence (peptide, as listed by the source): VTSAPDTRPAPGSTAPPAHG

| Binder | binding result |
| --- | --- |
| B1 | binds |
| B2 | binds |
| B3 | binds |

molecular target: T2, recombinant 60 mer MUC1 non-glycosylated-biotin (biotin conjugated to the N-terminus); test: as above
T2 construct: Not glycosylated; also called 60mer MUC1 non-glycosylated peptide
Description: as §1

T2 sequence (peptide, as listed by the source): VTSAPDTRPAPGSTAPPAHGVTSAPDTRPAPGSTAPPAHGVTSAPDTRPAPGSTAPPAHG

| Binder | binding result |
| --- | --- |
| B1 | no binding |
| B2 | no binding |
| B3 | no binding |

Molecular target: T3, decoy peptide (Tn (GalNac) antigen or sialyl Tn (Neu5Acα2-6GalNAc) antigen modifications on some of the S/T residues)
T3 construct: also called glycosylated decoy peptide
T3 peptide: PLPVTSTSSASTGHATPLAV
Test: as above
Description: as §1

| Binder | binding result |
| --- | --- |
| B1 | no binding |
| B2 | no binding |
| B3 | no binding |
